Data on one molecule can be found in patent publication US11857697B2, “Compositions and methods for obtaining 3-dimensional lung-like epithelium and related uses thereof” (THE REGENTS OF THE UNIVERSITY OF MICHIGAN, priority 2017, dated 2024).

Entries after “also recorded” stand apart in the source; their conditions may differ.

Holding throughout (format): cell-based
Experiment [1] relates to hPSC-derived human lung organoids (HLOs). The experiment can be described thus: Marker expression (QRT-PCR, immunofluorescence) in HLOs. The note with it: 42 days 3F then 26 days FGF7 only. The procedure:
Based on results in the mouse showing that FGF7 was permissive for differentiation (FIG. 1), experiments were conducted that hypothesized that removing CHIR-99021 and RA from HLOs grown in 3F media would reduce the number of progenitor cells and increase differentiation of mature cell types within HLO cultures. Foregut spheroids were collected and grown in 3F media for 42 days and were cultured for an additional 26 days in 3F media (control) or media containing FGF7 only (FIG. 10A). […] At the end of the experiment, cultures were collected and assessed for gene and protein expression.
(§1) RNA was extracted using the MagMAX-96 Total RNA Isolation System (Life Technologies). RNA quality and concentration was determined on a Nanodrop 2000 spectrophotometer (Thermo Scientific). 100 ng of RNA was used to generate a cDNA library using the SuperScript VILO cDNA master mix kit (Invitrogen) according to manufacturer's instructions. qRT-PCR analysis was conducted using Quantitect SYBR Green Master Mix (Qiagen) on a Step One Plus Real-Time PCR system (Life Technologies). Expression was calculated as a change relative to GAPDH expression using arbitrary units, which were calculated by the following equation: [2^(GAPDH Ct−Gene Ct)]×10,000. A Ct value of 40 or greater was considered not detectable. A list of primer sequences used can be found in Table 1.
(§2) Mouse bud, human bud, and HLO tissue was fixed in 4% Paraformaldehyde (Sigma) for 2 hours and rinsed in PBS overnight. Tissue was dehydrated in an alcohol series, with 30 minutes each in 25%, 50%, 75% Methanol:PBS/0.05% Tween-20, followed by 100% Methanol, and then 100% Ethanol. Tissue was processed into paraffin using an automated tissue processor (Leica ASP300). Paraffin blocks were sectioned 5-7 uM thick, and immunohistochemical staining was performed as previously described (Spence et al., 2009). A list of antibodies, antibody information and concentrations used can be found in Table 2. PAS Alcian blue staining was performed using the Newcomer supply Alcian Blue/PAS Stain kit (Newcomer Supply, Inc.) according to manufacturer's instructions.

For experiment [2], the system named is human fetal lung buds. Nature of the experiment: Marker expression (QRT-PCR, immunostaining) in cultured human fetal lung buds. The procedure:
as §1
as §2, with “PAS Alcian blue staining was performed using the Newcomer supply Alcian Blue/PAS Stain kit (Newcomer Supply, Inc.) according to manufacturer's instructions.” left out

Experiment [3] concerns e13.5 CD1 mouse epithelial lung buds. The experiment can be described thus: EdU incorporation quantified by flow cytometry in cultured mouse lung buds. As to conditions: 50-100 ng/mL FGF7 versus 1-10 ng/mL, one week culture, 1 hour EdU pulse. The procedure: Epithelial lung buds were dissected from e13.5 CD1 mice and plated in a matrigel droplet as described above. 3-4 individual buds from one mouse were placed in each droplet and were pooled to serve as a single biological replicate. Three droplets (corresponding to 3 independent biological samples) were assigned to each experimental group, receiving either 1, 10, 50 or 100 ng/mL of FGF7 for 7 days. Media was changed every 2-3 days. Cells were incubated with EdU for 1 hour and stained with the Click-It EdU Alexa Fluor 488 system (ThermoFisher Cat# C10337) according to the manufacturer's instructions. As a control, wells that received 10 ng/mL of FGF7 for 7 days were taken through the EdU steps but were not stained were used to set the gates. For analysis, lung buds were broken into a single cell suspension. 1 mL of accutase (Sigma Cat# A6964) was added to a 15 mL conical tube containing pooled epithelial buds and cells were incubated at 37 degrees Celsius with frequent visual inspection until clumps of cells were no longer visible. 3 mL of basal media (see below) was added to each tube, and cells were centrifuged at 300 g for 5 minutes at 4 degrees Celsius. The supernatant was then withdrawn, and cells were resuspended with 1 mL sterile PBS, filtered through a 70 uM strainer to remove any cell clumps and transferred to a cell sorting tube. […]

B1: Recombinant Human Fibroblast Growth Factor 7 (protein, UniProt P21781 32-194, looked up)
Fibroblast growth factor 7: CNDMTPEQMATNVNCSSPERHTRSYDYMEGGDIRVRRLFCRTQWYLRIDKRGKVKGTQEMKNNYNIMEIRTVAVGIVAIKGVESEFYLAMNKEGKLYAKKECNEDCNFKELILENHYNTYASAKWTHNGGEMFVALNQKGIPVRGKKTKKEQKTAHFLPMAIT
notes: Recombinant human growth factor from R&D systems, used at 10 ng/mL unless otherwise noted
With B1, in experiment [1] (versus 3F), the “AECI marker HOPX gene expression” value is “increased gene expression”; the “AECII marker SFTPC protein and mRNA expression” value is “increase in both protein and mRNA expression”; the “FOXJ1 mRNA expression (QRT-PCR)” value is “increased significantly”; the “MUC5AC gene expression (QRT-PCR)” value was “significant increase”. Besides, in experiment [1] (versus 3F), the “P63 mRNA expression (QRT-PCR)” value is on record as “significant increase in mRNA expression”, the “SOX2 transcript (QRT-PCR)” value is given as “significant increase” and the “SOX9 transcript (QRT-PCR)” value is “no change”. The “Increase of SCGB1A1 mRNA level over 3F controls” value in experiment [1] (not statistically significant) is ~100 fold. Further, in experiment [2] (4 weeks in culture, compared to 14 week old human fetal lung), the “Expression of proximal airway markers P63 and SCGB1A1 (QRT-PCR)” value was “significantly increased expression”. The “SOX9 and SOX2 immunostaining” value in experiment [2] (sections and wholemount, 4 weeks in vitro) is listed as “expressed both markers, but strong cytoplasmic SOX9 localization was observed”. The “Proliferation (EdU labeled cells)” value in experiment [3] is “increased proliferation significantly; also recorded: significant increase in labeled cells”.
